Laboratory results published in patent US20160011217A1 (NATIONAL CANCER CENTER, published 2016).

Target: T1, insoluble fibrin (fibrin plate, fibrin clot or tissue fibrin; species not stated for the experiment) (Homo sapiens (Human), UniProt P02671 36-630; P02675 45-491; P02679 27-433, Insoluble polymer of (alpha-beta-gamma)2 fibrin monomers, disulfide-bridged and possibly cross-linked by factor XIII. The letters give one copy of each chain only.)
T1 sequence (alpha): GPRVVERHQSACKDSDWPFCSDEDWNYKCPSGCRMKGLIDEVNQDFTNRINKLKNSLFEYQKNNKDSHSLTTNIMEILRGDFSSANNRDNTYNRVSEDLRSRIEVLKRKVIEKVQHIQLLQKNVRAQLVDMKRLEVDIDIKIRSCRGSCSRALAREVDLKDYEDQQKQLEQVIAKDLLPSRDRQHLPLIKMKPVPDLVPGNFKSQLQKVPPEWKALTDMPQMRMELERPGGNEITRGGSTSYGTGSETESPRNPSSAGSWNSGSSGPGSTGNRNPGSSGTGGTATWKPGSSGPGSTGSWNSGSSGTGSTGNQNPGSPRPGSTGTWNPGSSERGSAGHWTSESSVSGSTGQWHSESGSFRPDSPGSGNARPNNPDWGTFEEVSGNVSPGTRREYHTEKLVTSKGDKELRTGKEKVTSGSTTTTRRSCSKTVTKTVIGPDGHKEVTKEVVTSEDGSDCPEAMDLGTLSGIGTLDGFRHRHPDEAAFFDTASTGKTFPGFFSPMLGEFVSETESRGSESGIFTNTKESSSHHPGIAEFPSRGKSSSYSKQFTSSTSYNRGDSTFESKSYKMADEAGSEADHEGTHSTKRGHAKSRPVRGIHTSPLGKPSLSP
T1 sequence (beta): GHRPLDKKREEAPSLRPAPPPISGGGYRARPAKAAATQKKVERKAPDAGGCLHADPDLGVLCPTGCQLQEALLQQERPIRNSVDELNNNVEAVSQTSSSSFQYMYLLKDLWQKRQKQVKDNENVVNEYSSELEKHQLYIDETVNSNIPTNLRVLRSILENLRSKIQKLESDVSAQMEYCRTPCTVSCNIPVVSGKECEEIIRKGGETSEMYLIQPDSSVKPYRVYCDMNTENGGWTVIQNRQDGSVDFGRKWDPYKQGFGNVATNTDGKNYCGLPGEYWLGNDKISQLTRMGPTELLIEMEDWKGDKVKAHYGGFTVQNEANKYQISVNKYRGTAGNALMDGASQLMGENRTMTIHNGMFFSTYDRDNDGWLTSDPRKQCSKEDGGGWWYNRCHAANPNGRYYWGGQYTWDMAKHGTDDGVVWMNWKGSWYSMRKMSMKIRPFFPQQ
T1 sequence (gamma): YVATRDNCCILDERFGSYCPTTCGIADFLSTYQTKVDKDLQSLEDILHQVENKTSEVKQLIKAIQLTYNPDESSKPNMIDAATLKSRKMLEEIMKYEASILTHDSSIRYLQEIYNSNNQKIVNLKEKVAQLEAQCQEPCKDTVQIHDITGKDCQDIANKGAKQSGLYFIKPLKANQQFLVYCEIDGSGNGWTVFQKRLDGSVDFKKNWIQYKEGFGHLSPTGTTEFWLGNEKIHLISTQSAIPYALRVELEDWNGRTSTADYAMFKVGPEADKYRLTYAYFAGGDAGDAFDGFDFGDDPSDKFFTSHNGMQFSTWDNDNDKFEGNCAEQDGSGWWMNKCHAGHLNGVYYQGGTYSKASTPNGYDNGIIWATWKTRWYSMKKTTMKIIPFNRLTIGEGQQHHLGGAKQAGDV
Assay: ELISA, fibrin plate against fibrinogen plate, antibody at 10 µg/mL, absorbance at 492 nm
Description: Each of the antibody solutions (100 μL each) at 10 μg/mL was added to the fibrin plate and the fibrinogen plate, and allowed to stand at room temperature for 1 hour. After washing with TBS-T, Bethyl Anti-Human IgG-HRP (×1000 dilution) or Bethyl Anti-Mouse IgG-HRP (×10000 dilution) was added as a secondary antibody. Then, after washing with TBS-T, colorimetry was conducted with OPD for 10 minutes, and measurement was conducted at an absorption wavelength of 492 nm.

ratio of the affinity for insoluble fibrin to the affinity for fibrinogen (absorbance at 492 nm): 13 times
B1: Fib-0355 antibody (monoclonal antibody produced by hybridoma Fib-0355) (antibody, V domains shown)
VH: GPELKKPGETVKISCKASGYTFTNYGMNWVKQAPGKGLKWMGWINTNTGEPTYAEEFKGRFAFSLETSASTAYLQINNLKNEDTATYFCARLLDYWGQGTTLTVSS
VL: PSSLAVSAGEKVTMSCKSSQSVLYSSNQKNYLAWYQQKPGQSPKLLIYWASTRESGVPDRFTGSGSGTDFTLTISSVQAEDLAVYYCQQYLSSYTFGG
notes: Mouse hybridoma monoclonal antibody, detected with anti-mouse IgG-HRP; also called anti-β chain antibody
